Assay results published in patent publication US20160024487.

How the values were obtained:
[1] = target: T1, Lys(Dnp)-ATNATAGPRIVGG-Lys(Abz)
T1 chain: KATNATAGPRIVGGK

[2] = target: T2, Lys(Dnp)-ATNATAIPRIVGG-Lys(Abz)
T2 chain: KATNATAIPRIVGGK

[3] = target: T3, Lys(Dnp)-ATNATFFPRIVGG-Lys(Abz)
T3 chain: KATNATFFPRIVGGK

[4] = target: T4, Lys(Dnp)-ATNATFYPRIVGG-Lys(Abz)
T4 chain: KATNATFYPRIVGGK

[5] = target: T5, Lys(Dnp)-ATNATIWPRIVGG-Lys(Abz)
T5 chain: KATNATIWPRIVGGK

[6] = target: T6, Lys(Dnp)-ATNATIYPRIVGG-Lys(Abz)
T6 chain: KATNATIYPRIVGGK

[7] = target: T7, Lys(Dnp)-ATNATMHPRIVGG-Lys(Abz)
T7 chain: KATNATMHPRIVGGK

[8] = target: T8, Lys(Dnp)-ATNATMQPRIVGG-Lys(Abz)
T8 chain: KATNATMQPRIVGGK

[9] = target: T9, Lys(Dnp)-ATNATMRPRIVGG-Lys(Abz)
T9 chain: KATNATMRPRIVGGK

[10] = target: T10, Lys(Dnp)-ATNATPWPRIVGG-Lys(Abz)
T10 chain: KATNATPWPRIVGGK

[11] = target: T11, Lys(Dnp)-ATNATVFPRIVGG-Lys(Abz)
T11 chain: KATNATVFPRIVGGK

[12] = target: T12, Lys(Dnp)-ATNATVHPRIVGG-Lys(Abz)
T12 chain: KATNATVHPRIVGGK

[13] = target: T13, Lys(Dnp)-ATNATVKPRIVGG-Lys(Abz)
T13 chain: KATNATVKPRIVGGK

[14] = target: T14, Lys(Dnp)-ATNATVYPRIVGG-Lys(Abz)
T14 chain: KATNATVYPRIVGGK

[15] = target: T15, Lys(Dnp)-ATNATYQPRIVGG-Lys(Abz)
T15 chain: KATNATYQPRIVGGK

[16] = target: T16, Lys(Dnp)-ATNATYSPRIVGG-Lys(Abz)
T16 chain: KATNATYSPRIVGGK

[17] = target: T17, Lys(Dnp)-ATNATYWPRIVGG-Lys(Abz)
T17 chain: KATNATYWPRIVGGK

[18] = target: T18, Lys(Dnp)-ATNATANPRIVGG-Lys(Abz)
T18 chain: KATNATANPRIVGGK

[19] = target: T19, Lys(Dnp)-ATNATGLPRIVGG-Lys(Abz)
T19 chain: KATNATGLPRIVGGK

[20] = target: T20, Lys(Dnp)-ATNATHVPRIVGG-Lys(Abz)
T20 chain: KATNATHVPRIVGGK

[21] = target: T21, Lys(Dnp)-ATNATIAPRIVGG-Lys(Abz)
T21 chain: KATNATIAPRIVGGK

[22] = target: T22, Lys(Dnp)-ATNATISPRIVGG-Lys(Abz)
T22 chain: KATNATISPRIVGGK

[23] = target: T23, Lys(Dnp)-ATNATKMPRIVGG-Lys(Abz)
T23 chain: KATNATKMPRIVGGK

[24] = target: T24, Lys(Dnp)-ATNATPHPRIVGG-Lys(Abz)
T24 chain: KATNATPHPRIVGGK

[25] = target: T25, Lys(Dnp)-ATNATPLPRIVGG-Lys(Abz)
T25 chain: KATNATPLPRIVGGK

[26] = target: T26, Lys(Dnp)-ATNATPRPRIVGG-Lys(Abz)
T26 chain: KATNATPRPRIVGGK

[27] = target: T27, Lys(Dnp)-ATNATPTPRIVGG-Lys(Abz)
T27 chain: KATNATPTPRIVGGK

[28] = target: T28, Lys(Dnp)-ATNATQGPRIVGG-Lys(Abz)
T28 chain: KATNATQGPRIVGGK

[29] = target: T29, Lys(Dnp)-ATNATQNPRIVGG-Lys(Abz)
T29 chain: KATNATQNPRIVGGK

[30] = target: T30, Lys(Dnp)-ATNATRGPRIVGG-Lys(Abz)
T30 chain: KATNATRGPRIVGGK

[31] = target: T31, Lys(Dnp)-ATNATRRPRIVGG-Lys(Abz)
T31 chain: KATNATRRPRIVGGK

[32] = target: T32, Lys(Dnp)-ATNATRVPRIVGG-Lys(Abz)
T32 chain: KATNATRVPRIVGGK

[33] = target: T33, Lys(Dnp)-ATNATRWPRIVGG-Lys(Abz)
T33 chain: KATNATRWPRIVGGK

[34] = target: T34, Lys(Dnp)-ATNATTDPRIVGG-Lys(Abz)
T34 chain: KATNATTDPRIVGGK

[35] = target: T35, Lys(Dnp)-ATNATTPPRIVGG-Lys(Abz)
T35 chain: KATNATTPPRIVGGK

[36] = target: T36, Lys(Dnp)-ATNATTTPRIVGG-Lys(Abz)
T36 chain: KATNATTTPRIVGGK

[37] = target: T37, Lys(Dnp)-ATNATWDPRIVGG-Lys(Abz)
T37 chain: KATNATWDPRIVGGK

[38] = target: T38, Lys(Dnp)-ATNATWMPRIVGG-Lys(Abz)
T38 chain: KATNATWMPRIVGGK

[39] = target: T39, Lys(Dnp)-ATNATYAPRIVGG-Lys(Abz)
T39 chain: KATNATYAPRIVGGK

[40] = target: T40, Lys(Dnp)-ATNATYHPRIVGG-Lys(Abz)
T40 chain: KATNATYHPRIVGGK

[41] = target: T41, Lys(Dnp)-ATNATYRPRIVGG-Lys(Abz)
T41 chain: KATNATYRPRIVGGK

B1: Human plasma purified Factor Xa (protein)
chain 1: ANSFLEEMKKGHLERECMEETCSYEEAREVFEDSDKTNEFWNKYKDGDQCETSPCQNQGKCKDGLGEYTCTCLEGFEGKNCELFTRKLCSLDNGDCDQFCHEEQNSVVCSCARGYTLADNGKACIPTGPYPCGKQTLER
chain 2: IVGGQECKDGECPWQALLINEENEGFCGGTILSEFYILTAAHCLYQAKRFKVRVGDRNTEQEEGGEAVHEVEVVIKHNRFTKETYDFDIAVLRLKTPITFRMNVAPACLPERDWAESTLMTQKTGIVSGFGRTHEKGRQSTRLKMLEVPYVDRNSCKLSSSFIITQNMFCAGYDTKQEDACQGDSGGPHVTRFKDTYFVTGIVSWGEGCARKGKYGIYTKVTAFLKWIDRSMKTRGLPKAKSHAPEVITSSPLK
Question: B1 was tested. Which FXa kcat/KM [1] did it give?
Answer: 14 M⁻¹ s⁻¹

Question: And the FXa kcat/KM [2]?
Answer: 220 M⁻¹ s⁻¹

Question: And the FXa kcat/KM [3]?
Answer: 48 M⁻¹ s⁻¹

Question: What about the FXa kcat/KM [4] of the same protein?
Answer: 71 M⁻¹ s⁻¹

Question: And the FXa kcat/KM [5]?
Answer: 1500 M⁻¹ s⁻¹

Question: And the FXa kcat/KM [6]?
Answer: 220 M⁻¹ s⁻¹

Question: And the FXa kcat/KM [7]?
Answer: 290 M⁻¹ s⁻¹

Question: What about the FXa kcat/KM [8] of the same protein?
Answer: 950 M⁻¹ s⁻¹

Question: What about the FXa kcat/KM [9] of the same protein?
Answer: 490 M⁻¹ s⁻¹

Question: And the FXa kcat/KM [10]?
Answer: 1300 M⁻¹ s⁻¹

Question: What about the FXa kcat/KM [11] of the same protein?
Answer: 54 M⁻¹ s⁻¹

Question: What about the FXa kcat/KM [12] of the same protein?
Answer: 67 M⁻¹ s⁻¹

Question: And the FXa kcat/KM [13]?
Answer: 38 M⁻¹ s⁻¹

Question: What about the FXa kcat/KM [14] of the same protein?
Answer: 61 M⁻¹ s⁻¹

Question: And the FXa kcat/KM [15]?
Answer: 60 M⁻¹ s⁻¹

Question: What about the FXa kcat/KM [16] of the same protein?
Answer: 41 M⁻¹ s⁻¹

Question: And the FXa kcat/KM [17]?
Answer: 54 M⁻¹ s⁻¹

B2: Human plasma purified Factor Xa (Molecular Innovations, Inc) (protein)
chain 1: B1 chain 1
chain 2: B1 chain 2
Question: Which results are given for B2?
Answer: FXa kcat/KM [18]: 78 M⁻¹ s⁻¹; FXa kcat/KM [19]: 78 M⁻¹ s⁻¹; FXa kcat/KM [20]: 39 M⁻¹ s⁻¹; FXa kcat/KM [21]: 650 M⁻¹ s⁻¹; FXa kcat/KM [22]: 610 M⁻¹ s⁻¹; FXa kcat/KM [23]: 140 M⁻¹ s⁻¹; FXa kcat/KM [24]: 360 M⁻¹ s⁻¹; FXa kcat/KM [25]: 330 M⁻¹ s⁻¹; FXa kcat/KM [26]: 500 M⁻¹ s⁻¹; FXa kcat/KM [27]: 840 M⁻¹ s⁻¹; FXa kcat/KM [10]: 1300 M⁻¹ s⁻¹; FXa kcat/KM [28]: 140 M⁻¹ s⁻¹; FXa kcat/KM [29]: 610 M⁻¹ s⁻¹; FXa kcat/KM [30]: 680 M⁻¹ s⁻¹; FXa kcat/KM [31]: 900 M⁻¹ s⁻¹; FXa kcat/KM [32]: 510 M⁻¹ s⁻¹; FXa kcat/KM [33]: 3000 M⁻¹ s⁻¹; FXa kcat/KM [34]: 11 M⁻¹ s⁻¹; FXa kcat/KM [35]: 72 M⁻¹ s⁻¹; FXa kcat/KM [36]: 17 M⁻¹ s⁻¹; FXa kcat/KM [37]: 16 M⁻¹ s⁻¹; FXa kcat/KM [38]: 200 M⁻¹ s⁻¹; FXa kcat/KM [39]: 49 M⁻¹ s⁻¹; FXa kcat/KM [40]: 43 M⁻¹ s⁻¹; FXa kcat/KM [41]: 610 M⁻¹ s⁻¹
